Laboratory results: article PMC11098746 (2024)
No end group written: not given here.

B1: ADP317 (protein)
chain: MGSWALLWPPLLFTGLLVRPPGTMAQAQYCSVNKDIFEVEENTNVTEPLVDIHVPEGQEVTLGALSTPFAFRIQGNQLFLNVTPDYEEKSLLEAQLLCQSGGTLVTQLRVFVSVLDVNDNAPEFPFKTKEIRVEEDTKVNSTVIPETQLQAEDRDKDDILFYTLQEMTAGASDYFSLVSVNRPALRLDRPLDFYERPNMTFWLLVRDTPGENVEPSHTATATLVLNVVPADLRPPWFLPCTFSDGYVCIQAQYHGAVPTGHILPSPLVLRPGPIYAEDGDRGINQPIIYSIFRGNVNGTFIIHPDSGNLTVARSVPSPMTFLLLVKGQQADLARYSVTQVTVEAVAAAGSPPRFPQRLYRGTVARGAGAGVVVKDAAAPSQPLRIQAQDPEFSDLNSAITYRITNHSHFRMEGEVVLTTTTLAQAGAFYAEVEAHNTVTSGTATTVIEIQVSEQEPPSTDVPPSPEAGGTTGPWTSTTSEVPRPPEPSQGPSTTSSGGGTGPHPPSGTTLRPPTSSTPGGPPGAENSTSHQPATPGGDTAQTPKPGTSQPMPPGVGTSTSHQPATPSGGTAQTPEPGTSQPMPPSMGTSTSHQPATPGGGTAQTPEAGTSQPMPPGMGTSTSHQPTTPGGGTAQTPEPGTSQPMPLSKSTPSSGGGPSEDKRFSVVDMA
modifications: bait human Fc-tagged dimer
B2: ADP138 (protein)
chain: MAGKSSTRAVLLLLGIQLTALWPIAAVEIYTSRVLEAVNGTDARLKCTFSSFAPVGDALTVTWNFRPLDGGPEQFVFYYHIDPFQPMSGRFKDRVSWDGNPERYDASILLWKLQFDDNGTYTCQVKNPPDVDGVIGEIRLSVVHTVRFS
modifications: bait human Fc-tagged dimer
B3: ADP155 (protein)
chain: MAPARLFALLLFFVGGVAESIRETEVIDPQDLLEGRYFSGALPDDEDVVGPGQESDDFELSGSGDLDDLEDSMIGPEVVHPLVPLDNHIPERAGSGSQVPTEPKKLEENEVIPKRISPVEESEDVSNKVSMSSTVQGSNIFERTEV
modifications: bait human Fc-tagged dimer
B4: ADP120 (protein)
chain: MAGVGAGPLRAMGRQALLLLALCATGAQGLYFHIGETEKRCFIEEIPDETMVIGNYRTQMWDKQKEVFLPSTPGLGMHVEVKDPDGKVVLSRQYGSEGRFTFTSHTPGDHQICLHSNSTRMALFAGGKLRVHLDIQVGEHANNYPEIAAKDKLTELQLRARQLLDQVEQIQKEQDYQRYREERFRLTSESTNQR
modifications: bait human Fc-tagged dimer
B5: ADP325 (protein)
chain: MAAAQEADGARSAVVAAGGGSSGQVTSNGSIGRDPPAETQPQNPPAQPAPNAWQVIKGVLFRIFIIWAISSWFRRGPAPQDQAGPGGAPRVASRNLFPKDTLMNLHVYISEHEHFTDFNATSALFWEQHDLVYGDWTSGENSDGCYEHFAELDIPQSVQQNGSIYIHVYFTKSGFHPDPRQKALYRRLATVHMSRMINKYKRRRFQKTKNLLTGETEADPEMIKRAEDYGPVEVISHWHPNITINIVDDHTPWVKGSVPPPLDQYVKFDAVSGDYYPIIYFNDYWNLQKDYYPINESLASLPLRVSFCPLSLWRWQLYAAQSTKSPWNFLGDELYEQSDEEQDSVKVALLETNP
modifications: bait human Fc-tagged dimer
B6: ADP379 (protein)
chain: PCPDRPASQRMWRIDYSAAVIYDFLAVDDINGDRIQDVLFLYKNTNSSNNFSRSCVDEGFSSPCTFAAAVSGANGSTLWERPVAQDVALVECAVPQPRGSEAPSACILVGRPSSFIAVNLFTGETLWNHSSSFSGNASILSPLLQVPDVDGDGAPDLLVLTQEREEVSGHLYSGSTGHQIGLRGSLGVDGESGFLLHVTRTGAHYILFPCASSLCGCSVKGLYEKVTGSGGPFKSDPHWESMLNATTRRMLSHSSGAVRYLMHVPGNAGADVLLVGSEAFVLLDGQELTPRWTPKAAHVLRKPIFGRYKPDTLAVAVENGTGTDRQILFLDLGTGAVLCSLALPSLPGGPLSASLPTADHRSAFFFWGLHELGSTSETETGEARHSLYMFHPTLPRVLLELANVSTHIVAFDAVLFEPSRHAAYILLTGPADSEAPGLVSVIKHKVRDLVPSSRVVRLGEGGPDSDQAIRDRFSRLRYQSEA
modifications: bait human Fc-tagged dimer
B7: ADP151 (protein)
chain: MALTLSVLICLGLSVGPRTCVQAGTLPKPTLWAEPASVIARGKPVTLWCQGPLETEEYRLDKEGLPWARKRQNPLEPGAKAKFHIPSTVYDSAGRYRCYYETPAGWSEPSDPLELVATGFYAEPTLLALPSPVVASGGNVTLQCDTLDGLLTFVLVEEEQKLPRTLYSQKLPKGPSQALFPVGPVTPSCRWRFRCYYYYRKNPQVWSNPSDLLEILVPGVSRKPSLLIPQGSVVARGGSLTLQCRSDVGYDIFVLYKEGEHDLVQGSGQQPQAGLSQANFTLGPVSRSHGGQYRCYGAHNLSPRWSAPSDPLDILIAGLIPDIPALSVQPGPKVASGENVTLLCQSWHQIDTFFLTKEGAAHPPLCLKSKYQSYRHQAEFSMSPVTSAQGGTYRCYSAIRSYPYLLSSPSYPQELVVSGPSGDPSLSPTGSTPTPGPEDQPLTPTGLDPQSGLG
modifications: bait human Fc-tagged dimer
B8: ADP146 (protein)
chain: MVAWRSAFLVCLAFSLATLVQRGSGDFDDFNLEDAVKETSSVKQPWDHTTTTTTNRPGTTRAPAKPPGSGLDLADALDDQDDGRRKPGIGGRERWNHVTTTTKRPVTTRAPANTLGNDFDLADALDDRNDRDDGRRKPIAGGGGFSDKDLEDIVGGGEYKPDKGKGDGRYGSNDDPGSGMVAEP
modifications: bait human Fc-tagged dimer
B9: ADP354 (protein)
chain: MGPWSRSLSALLLLLQVSSWLCQEPEPCHPGFDAESYTFTVPRRHLERGRVLGRVNFEDCTGRQRTAYFSLDTRFKVGTDGVITVKRPLRFHNPQIHFLVYAWDSTYRKFSTKVTLNTVGHHHRPPPHQASVSGIQAELLTFPNSSPGLRRQKRDWVIPPISCPENEKGPFPKNLVQIKSNKDKEGKVFYSITGQGADTPPVGVFIIERETGWLKVTEPLDRERIATYTLFSHAVSSNGNAVEDPMEILITVTDQNDNKPEFTQEVFKGSVMEGALPGTSVMEVTATDADDDVNTYNAAIAYTILSQDPELPDKNMFTINRNTGVISVVTTGLDRESFPTYTLVVQAADLQGEGLSTTATAVITVTDTNDNPPIFNPTTYKGQVPENEANVVITTLKVTDADAPNTPAWEAVYTILNDDGGQFVVTTNPVNNDGILKTAKGLDFEAKQQYILHVAVTNVVPFEVSLTTSTATVTVDVLDVNEAPIFVPPEKRVEVSEDFGVGQEITSYTAQEPDTFMEQKITYRIWRDTANWLEINPDTGAISTRAELDREDFEHVKNSTYTALIIATDNGSPVATGTGTLLLILSDVNDNAPIPEPRTIFFCERNPKPQVINIIDADLPPNTSPFTAELTHGASANWTIQYNDPTQESIILKPKMALEVGDYKINLKLMDNQNKDQVTTLEVSVCDCEGAAGVCRKAQPVEAGLQIP
modifications: bait human Fc-tagged dimer
B10: ADP320 (protein)
chain: MAAAPGLLVWLLVLRLPWRVPGQLDPSTGRRFSEHKLCADDECSMLMYRGEALEDFTGPDCRFVNFKKGDPVYVYYKLARGWPEVWAGSVGRTFGYFPKDLIQVVHEYTKEELQVPTDETDFVCFDGGRDDFHNYNVEELLGFLELYNSAATDSEKAVEKTLQDMEKNPELSKEREPEPEPVEANSEESDSVFSENTEDLQEQFTTQKHHSHANSQANHAQGEQASFESFEEMLQDKLKVPESENNKTSNSSQVSNEQDKIDAYKLLKKEMTLDLKTKFGSTADALVSDDETTRLVTSLEDDFDEELDTEYYAVGKEDEENQEDFDELPLLTFTDGEDMKTPAKSGVEKYPTDKEQNSNEEDKVQLTVPPGIKNDDKNILTTWGDTIFSIVTGGEETRDTMDLESSSSEEEKEDDDDALVPDSKQGKPQSATDYSDPDNVDDGLFIVDIPKTNNDKEVNAEHHIKGKGRGVQESKRGLVQDKTELEDENQEGMTVHSSVHSNNLNSMPAAEKGKDTLKSAYDDTENDLKGAAIHISKGMLHEEKPGEQILEGGSESESAQKAAGNQMNDRKIQQESLGSAPLMGDDHPNASRDSVEGDALVNGAKLHTLSVEHQREELKEELVLKTQNQPRFSSPDEIDLPRELEDEVPILGRNLPWQQERDVAATASKQMSEKIRLSEGEAKEDSLDEEFFHHKAMQGTEVGQTDQTDSTGGPAFLSKVEEDDYPSEELLEDENAINAKRSKEKNPGNQGRQFDVNLQVPDRAVLGTIHPDPEIEESKQETSMILDSEKTSETAAKGVNTGGREPNTMVEKERPLADKKAQRPFERSDFSDSIKIQTPELGEVFQNKDSDYLKNDNPEEHLKTSGLAGEPEGELSKEDHENTEKYMGTESQGSAAAEPEDDSFHWTPHTSVEPGHSDKREDLLIISSFFKEQQSLQRFQKYFNVHELEALLQEMSSKLKSAQQESLPYNMEKVLDKVFRASESQILSIAEKMLDTRVAENRDLGMNENNIFEEAAVLDDIQDLIYFVRYKHSTAEETATLVMAPPLEEGLGGAMEEMQPLHEDNFSREKTAELNVQVPEEPTHLDQRVIGDTHASEVSQKPNTEKDLDPGPVTTEDTPMDAIDANKQPETAAEEPASVTPLENAILLIYSFMFYLTKSLVATLPD
modifications: bait human Fc-tagged dimer
B11: ADP279 (protein)
chain: RMAHKFITGKLVEDERSDREETESSEGEEAAAGGGAKSRPLANGHPILNNNHRKND
modifications: also: human Fc-tagged dimer
B12: ADP341 (protein)
chain: MEAAVAAPRPRLLLLVLAAAAAAAAALLPGATALQCFCHLCTKDNFTCVTDGLCFVSVTETTDKVIHNSMCIAEIDLIPRDRPFVCAPSSKTGSVTTTYCCNQDHCNKIELPTTVKSSPGLGP
modifications: bait human Fc-tagged dimer
B13: ADP261 (protein)
chain: KWETKNCSVSSTNANDITQSLTGKGNDSEEEMRFQEVFMEHMSNMEKRIQHILDMEANLMDTEHFQNFSMTTDQRFNDILLQLSTLFSSVQGHGNAIDEISKSLISLNTTLLDLQLNIENLNGKIQENTFKQQEEISKLEERVYNVSAEIMAMKEEQVHLEQEIKGEVKVLNNITNDLRLKDWEHSQTLRNITLIQGPPGPPGEKGDRGPTGESGPRGFPGPIGPPGLKGDRGAIGFPGSRGLPGYAGRPGNSGPKGQKGEKGSGNTLTPFTKVRLVGGSGPHEGRVEILHSGQWGTICDDRWEVRVGQVVCRSLGYPGVQAVHKAAHFGQGTGPIWLNEVFCFGRESSIEECKIRQWGTRACSHSEDAGVTCTL
modifications: bait human Fc-tagged dimer
B14: ADP284 (protein)
chain: SNAYSSPSVVLASYNHDGTRNILDDFREAYFWLRQNTDEHARVMSWWDYGYQIAGMANRTTLVDNNTWNNSHIALVGKAMSSNETAAYKIMRTLDVDYVLVIFGGVIGYSGDDINKFLWMVRIAEGEHPKDIRESDYFTPQGEFRVDKAGSPTLLNCLMYKMSYYRFGEMQLDFRTPPGFDRTRNAEIGNKDIKFKHLEEAFTSEHWLVRIYKVKAPDNRETLDHKPRVTNIFPKQKYLSKKTTKRKRGYIKNKLVFKKGKKISKKTV
modifications: bait human Fc-tagged dimer

The binders below were run against Circumsporozoite protein (CSP) (Plasmodium falciparum (isolate 3D7), UniProt Q7K740) (assay: AVEXIS screen signal:noise (double-corrected)).
Chain of Circumsporozoite protein (CSP) (Q7K740 19-374): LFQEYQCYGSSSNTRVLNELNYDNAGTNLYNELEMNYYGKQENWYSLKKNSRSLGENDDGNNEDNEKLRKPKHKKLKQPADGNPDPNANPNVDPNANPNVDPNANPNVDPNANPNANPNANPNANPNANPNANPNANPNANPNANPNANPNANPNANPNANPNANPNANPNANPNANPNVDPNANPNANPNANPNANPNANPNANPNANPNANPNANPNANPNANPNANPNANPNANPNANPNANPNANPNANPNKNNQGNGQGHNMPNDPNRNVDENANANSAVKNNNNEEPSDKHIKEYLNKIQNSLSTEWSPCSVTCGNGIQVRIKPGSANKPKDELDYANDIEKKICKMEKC

Binder | binding score
B1 | 2.47
B2 | 0.831
B3 | 0.582
B4 | 0.957
B5 | 1.73
B6 | 2.44
B7 | 1.33
B8 | 1.36
B9 | 0.796
B10 | 1.04
B11 | 1.03
B12 | 1.43
B13 | 0.837
B14 | 0.868
